Assay results from patent US6329500A, “Transforming growth factor-β binding site” (University of Virginia Patent Foundation, priority 1999, dated 2001).
Values belong to the molecule of their own block, whether it stands above or below them.

Tests used:
FBHE cells = experiment: Endothelial cell proliferation assay, TGF-β alone; assay type: cell-based, bovine; conditions: TGF-β 10 pM, 1 h pulse
Description: (§1) Fetal bovine heart endothelial (FBHE) cells were cultured in DMEM supplemented with 10% FBS, 20 ng/ml acidic fibroblast growth factor, and 80 ng/ml basic fibroblast growth factor and passaged at subconfluence with trypsin-EDTA. To perform proliferation assays, the cells were plated at a density of 2×10^4 /well (24 well plates) in DMEM supplemented with 0.2% FBS. […] The fusion proteins were preincubated with the TGF-β for 15 min prior to addition to the cultures. At the completion of an incubation, the cultures were washed 3 times with serum-free DMEM and then allowed to incubate in DMEM with 0.2% FBS for 30 h. [^3 H]Thymidine was added for an additional 18 h; the cells were then harvested and [^3 H]thymidine incorporation was quantitated.

TGF-β1 [1] = target: T1, TGF-β1 (Homo sapiens, UniProt P01137); conditions: read-out: KD for TGF-β1 (either TGF-β isoform); cited from earlier work
T1 construct: purchased R&D Systems (Minneapolis, Minn.)

TGF-β2 [2] = target: T2, TGF-β2 (Homo sapiens, UniProt P61812); experiment: Ligand blot analysis of 125I-TGF-β2 binding to PVDF-immobilized proteins; conditions: SDS-PAGE, PVDF membrane, 125I-TGF-β2 20 pM, 2 h at 25° C.
T2 construct: purchased Genzyme (Cambridge, Mass.)
T2 sequence (P61812 303-414 limits assumed): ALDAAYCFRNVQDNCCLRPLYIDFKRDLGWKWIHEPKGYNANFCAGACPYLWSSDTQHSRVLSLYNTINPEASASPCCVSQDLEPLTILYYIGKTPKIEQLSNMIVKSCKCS
Description: To block free sulfhydryls, some samples were treated with 5 mM IAM for 2 h at 25° C. Equivalent amounts of each protein ([…]) were subjected to SDS-PAGE on 10% slabs. IAM-treated GST-α2 M-peptide fusion proteins were subjected to SDS-PAGE as well. All samples were electro-transferred to PVDF membranes. The membranes were blocked with 5% milk and 0.1% Tween 20 in PBS for 12 h at 4° C. and then rinsed with 0.1% Tween 20 in PBS (PBS-T). […] Biophys. Res. Commun. […] NGF-β was radioiodinated with Iodogen, to a specific activity of 2-5 μCi/μg, using the method recommended by the manufacturer. […] After washing the membranes with PBS-T, bound radioligands were detected by Phosphorlmager analysis.

TGF-β2 [3] = target: T2, TGF-β2; conditions: read-out: KD for TGF-β2 (either TGF-β isoform); cited from earlier work
TGF-β2 [4] = target: T2, TGF-β2; experiment: Binding of 125I-TGF-β2 to FP3 and FP4 in solution as determined by FPLC on Superose-12; conditions: fusion protein 0.5 μM, 125I-TGF-β2 0.5 nM, 30 min 37° C., n=2
Description: The flow rate was 0.4 ml/min. […] To calibrate the FPLC, the following proteins were subjected to chromatography on the same column: soybean trypsin inhibitor (Mr~21,500, Ve of 14.1 ml), ovalbumin (Mr~45,000, Ve of 12.9 ml), BSA (Mr~66,000, Ve of 12.1 ml), and BSA dimer (Mr~132,000, Ve of 10.9 ml).

TGF-β2 [5] = target: T2, TGF-β2; experiment: 125I-TGF-β2 binding to immobilized α2M-MA, solution-phase competition; conditions: increasing concentrations (4-250 nM)
Description: The wells were washed three times with PBS-T and blocked with PBS-T for 16 h at 4° C. […] In the presence of a fusion protein (FP) which binds TGF-β, the total concentration of TGF-β [βT ] was related to [βF ], at equilibrium, as follows: [βT ]=[βF ](1+[FP]/KI).

TGF-β2 [6] = target: T2, TGF-β2; experiment: Endothelial cell proliferation assay, neutralization of TGF-β2 by fusion proteins; assay type: cell-based
Description: as §1

TGF-β1 [7] = target: T1, TGF-β1; experiment: Endothelial cell proliferation assay, neutralization of TGF-β1 by fusion proteins; assay type: cell-based
Description: as §1

RAW 264.7 cells = experiment: NO synthesis (nitrite in conditioned medium) by RAW 264.7 cells; assay type: cell-based, murine; conditions: 250 nM, SFM, 24 h
Description: NO synthesis by RAW 264.7 cells was quantitated by measuring the stable NO oxidation product, nitrite, in conditioned medium, as previously described (Anal. Biochem. 126, 131-138 (1982)). […] The fusion proteins were purified and detergent-free. After 24 h, conditioned medium (100 μl) was recovered and nitrite was measured. […] Biol, Chem. 270, 21919-21927 (1995)). The α2 M-induced increase in RAW 264.7 cell NO synthesis is inhibited by the NOS inhibitor, N^G -monomethyl-L-arginine.

125I-TGF-β2 binding, ligand blot (TGF-β2 [2]): only trace levels
B2: MUG: monomeric murine homologue of human α2M, purified from plasma of CD-1 female mice (protein)
chain: DSKYMVLVPSQLYTETPEKICLHLYQLNETVTVTASLVSQSGRKNLFDELVLDKDLFQCVSFIIPRLSSSDEEDFLYVDIKGPTHEFSKRKAVLVKNKESVVFVQTDKPVYKPGQSVKFRVVSMDKMLRPLNELLPLAYIEDPKKNRIMQWRDIKTENGLKQMSFSLAAEPIQGPYKIVVHKESGEKEEHSFTVMEFVLPRFNVDLKVPNAMSVNDEVLSVTACGKYTYGKPVPGHVKINVCRETETGCREVNSQLDNNGCSTQEVNITELQSKKRNYEVQLFHVNATVTEEGTGLEFSRSGTTKIERITNKLIFLKADSHFRHGIPFFVKVRLVDIKGDPIPNEKVFIKAQELSYTSATTTDQHGLAEFSIDTTCISGSSLHIKVNHKEEDSCSYFYCMEERHASAKHVAYAVYSLSKSYIYLDTETSSILPCNQIHTVQAHFILKGDLGVLKELIFYYLVMAQGSIIQTGNHTHQVEPGEAPVKGKFALEIPVEFSMVPMAKMLIYTILPDGEVIADSVNFEIEKCLRNKVDLRFSTSQSLPASQTRLQVTASPQSLCGLRAVDQSVLLLKPESELSPSWIYNLPGMQQNKFVPSSRLSEDQEDCILYSSWLAEKHTNLVPHGTEKDVYRYVEDMGLTAFTNLMIKLPIICFDYGMVPISAPRVEFDLAFTPEISWSLRTTLSKRPEEPPRKDPSSNDPLTETIRKYFPETWVWDIVTVNSTGLAEVEMTVPDTITEWKAGALCLSNDTGLGLSSVVPLQAFKPFFVEVSLPYSVVRGEAFMLKATVMNYLPTSMQMSVQLEASPDFTAVPVGDDQDSYCLSANGRHTSSWLVTPKSLGNVNFSVSAEAQQSSEPCGSEVATVPETGRKDTVVKVLIVEPEGIKQEHTFSSLFCASDAEISEKMSLVLPPTVVKDSARAHFSVMGDILSSAIRNTQNLLHMPYGCGEQNMVLFAPNIYVLKYLNETQQLTQKIKTKALGFLRAGYQRELNYKHKDGSYSAFGDQNGEREGNTWLTAFVLKSFAQARAFIFIDESHITHAFTWLSQKQKDNGCFRSSGSLFNNAMKGGVDDEMTLSAYITMALLESSLPATHPVVSKALSCLESSWKTIEQERNASFVYTKALMAYAFALAGNQNKRDEILKSLDEEAIKENNSIHWKRPQKSRKSEHHLYKPQASSAEVEMNAYVVLARLTAQPAPSPEDLTLSMSTIMWLTKQQNSNGGFSSTQDTVVALDALSKYGAVTFSRSQKTTLVTIQSTGSFSQKFQVENSNRLLLQQVALPDIPGDYTISVSGEGCVYAQTMLRYNMHLEKQLSAFAIWVQTVPLTCNNPKGHNSFQISLEISYTGSRPASNMVIADVKMLSGFIPLKPTVKKLERLEHVSRTEVSNNNVLIYLDQVTNQTLAFSFIIQQDIPVRNLQPAIVKVYDYYETDEMAFAEYSSPCSTDKQNV
Kd (TGF-β1 [1]): ~1 µM | Kd (TGF-β2 [3]): ~1 µM

125I-TGF-β2 binding, ligand blot (TGF-β2 [2]): did not bind
B4: FP5: GST-fusion protein with human α2M amino acids 1053-1302 (protein)
chain: DNGCFRSSGSLLNNAIKGGVEDEVTLSAYITIALLEIPLTVTHPVVRNALFCLESAWKTAQEGDHGSHVYTKALLAYAFALAGNQDKRKEVLKSLNEEAVKKDNSVHWERPQKPKAPVGHFYEPQAPSAEVEMTSYVLLAYLTAQPAPTSEDLTSATNIVKWITKQQNAQGGFSSTQDTVVALHALSKYGAATFTRTGKAAQVTIQSSGTFSSKFQVDNNNRLLLQQVSLPELPGEYSMKVTGEGCVYLQ
modifications: free sulfhydryls blocked with iodoacetamide (IAM)

125I-TGF-β2 recovered (co-eluted) with the fusion protein (TGF-β2 [4]): 6% | Inhibition of 125I-TGF-β2 binding to immobilized α2M-MA (TGF-β2 [5]): did not inhibit | 125I-TGF-β2 binding, ligand blot (TGF-β2 [2]): did not bind | [3H]thymidine incorporation (% control) (TGF-β2 [6]; FBHE cells, fusion protein (0.2 μM) + TGF-β2 (10 pM), 1 h pulse): 38 ± 6% | Effect on TGF-β2 activity in FBHE proliferation assay (TGF-β2 [6]; fusion protein 200 nM, TGF-β2 10 pM): No change in TGF-β activity | [3H]thymidine incorporation (% control) (TGF-β1 [7]; FBHE cells, fusion protein (0.2 μM) + TGF-β1 (10 pM), 1 h pulse): 31 ± 4% | Effect on TGF-β1 activity in FBHE proliferation assay (TGF-β1 [7]; fusion protein 200 nM, TGF-β1 10 pM): No change in TGF-β activity
B6: FP4: GST-fusion protein with human α2M amino acids 798-1082 (protein)
chain: CIRVSVQLEASPAFLAVPVEKEQAPHCICANGRQTVSWAVTPKSLGNVNFTVSAEALESQELCGTEVPSVPEHGRKDTVIKPLLVEPEGLEKETTFNSLLCPSGGEVSEELSLKLPPNVVEESARASVSVLGDILGSAMQNTQNLLQMPYGCGEQNMVLFAPNIYVLDYLNETQQLTPEIKSKAIGYLNTGYQRQLNYKHYDGSYSTFGERYGRNQGNTWLTAFVLKTFAQARAYIFIDEAHITQALIWLSQRQKDNGCFRSSGSLLNNAIKGGVEDEVTLSAYI
modifications: free sulfhydryls blocked with iodoacetamide (IAM)
Nitrite production by RAW 264.7 cells (RAW 264.7 cells): did not increase nitrite production

The next lines start with the molecule.

B1: TGF-β2: transforming growth factor-β2 from Genzyme (protein, UniProt P61812 303-414, looked up)
Transforming growth factor …: T2 sequence (P61812 303-414 limits assumed)
Decrease of [3H]thymidine incorporation (FBHE cells): 57%

B3: FP2: GST-fusion protein with human α2M amino acids 364-613 (protein)
chain: RGNEANYYSNATTDEHGLVQFSINTTNVMGTSLTVRVNYKDRSPCYGYQWVSEEHEEAHHTAYLVFSPSKSFVHLEPMSHELPCGHTQTVQAHYILNGGTLLGLKKLSFYYLIMAKGGIVRTGTHGLLVKQEDMKGHFSISIPVKSDIAPVARLLIYAVLPTGDVIGDSAKYDVENCLANKVDLSFSPSQSLPASHAHLRVTAAPQSVCALRAVDQSVLLMKPDAELSASSVYNLLPEKDLTGFPGPLND
modifications: free sulfhydryls blocked with iodoacetamide (IAM)
125I-TGF-β2 binding, ligand blot (TGF-β2 [2]): did not bind

B5: FP1: GST-fusion protein with human α2M amino acids 122-415 (protein)
chain: KFRVVSMDENFHPLNELIPLVYIQDPKGNRIAQWQSFQLEGGLKQFSFPLSSEPFQGSYKVVVQKKSGGRTEHPFTVEEFVLPKFEVQVTVPKIITILEEEMNVSVCGLYTYGKPVPGHVTVSICRKYSDASDCHGEDSQAFCEKFSGQLNSHGCFYQQVKTKVFQLKRKEYEMKLHTEAQIQEEGTVVELTGRQSSEITRTITKLSFVKVDSHFRQGIPFFGQVRLVDGKGVPIPNKVIFIRGNEANYYSNATTDEHGLVQFSINTTNVMGTSLTVRVNYKDRSPCYGYQWVS
modifications: free sulfhydryls blocked with iodoacetamide (IAM)
125I-TGF-β2 binding, ligand blot (TGF-β2 [2]): did not bind
